Experiments:
[1] = target: HLA-A2 on T2 cells without added peptide (human); assay: flow cytometry, T2 cells without peptide, antibody 10 µg/mL
[2] = target: WT1RMF/HLA-A2 complex on cells (human); assay: flow cytometry, T2 cells pulsed with 25 µM WT1RMF, antibody 10 µg/mL
[3] = target: PIGQ/HLA complex on PIGQ-pulsed T2 cells (human); assay: flow cytometry, T2 cells pulsed with 25 µM PIGQ peptide, antibody 10 µg/mL
[4] = target: MED13L/HLA complex on MED13L-pulsed T2 cells (human); assay: flow cytometry, T2 cells pulsed with 25 µM MED13L peptide, antibody 10 µg/mL

Percentage of Positive Cells (%) [1]: 5.43% | Percentage of Positive Cells (%) [2]: 4.93% | Percentage of Positive Cells (%) [3]: 4.78% | Percentage of Positive Cells (%) [4]: 5.38%
Substance: ISO (antibody)

Source: patent publication US20260152571A1
